{
  "source": "IntAct's records for PubMed 25752541",
  "parents": {"B1": {"name": "Ankyrin repeat family A protein 2 (Homo sapiens), Q9H9E1 (parent)", "chain": "MDTSTNLDIGAQLIVEECPSTYSLTGMPDIKIEHPLDPNSEEGSAQGVAMGMKFILPNRFDMNVCSRFVKSLNEEDSKNIQDQVNSDLEVASVLFKAECNIHTSPSPGIQVRHVYTPSTTKHFSPIKQSTTLTNKHRGNEVSTTPLLANSLSVHQLAAQGEMLYLATRIEQENVINHTDEEGFTPLMWAAAHGQIAVVEFLLQNGADPQLLGKGRESALSLACSKGYTDIVKMLLDCGVDVNEYDWNGGTPLLYAVHGNHVKCVKMLLESGADPTIETDSGYNSMDLAVALGYRSVQQVIESHLLKLLQNIKE", "partner": "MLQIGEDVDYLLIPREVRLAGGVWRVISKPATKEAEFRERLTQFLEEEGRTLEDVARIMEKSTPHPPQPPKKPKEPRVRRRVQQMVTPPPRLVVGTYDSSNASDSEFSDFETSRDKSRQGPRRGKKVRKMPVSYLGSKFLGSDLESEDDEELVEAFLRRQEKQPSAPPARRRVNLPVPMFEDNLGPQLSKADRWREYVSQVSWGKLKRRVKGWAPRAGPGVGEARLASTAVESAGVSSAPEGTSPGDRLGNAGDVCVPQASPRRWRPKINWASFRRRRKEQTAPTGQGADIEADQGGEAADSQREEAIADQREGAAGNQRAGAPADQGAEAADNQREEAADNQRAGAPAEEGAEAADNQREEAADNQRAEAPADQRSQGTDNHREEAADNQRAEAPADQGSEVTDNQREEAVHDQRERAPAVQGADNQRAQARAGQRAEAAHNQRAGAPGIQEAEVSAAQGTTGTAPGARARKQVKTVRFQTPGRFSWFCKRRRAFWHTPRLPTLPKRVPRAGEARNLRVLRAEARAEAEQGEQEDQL"}, "B2": {"name": "Coiled-coil domain-containing protein 8 (Homo sapiens), Q9H0W5 (parent)", "chain": "B1 partner", "partner": "B1 chain"}},
  "data": [
    {"variants_of": "B1", "settings": "with ccdc8_human CCDC8, Q9H0W5", "values": [
      {"variant": "MDTSTNLDIGAQLIVEECPSTYSLTGMPDIKIEHPLDPNSEEGSAQGVAMGMKFILPNRFDMNVCSRFVKSLNEEDSKNIQDQVNSDLEVASVLFKAECNIHTSPSPGIQVRHVYTPSTTKHFSPIKQSTTLTNKHRGNEVSTTPLLANSLSVHQLAAQGEMLYLATRIEQENVINHTDEEGFTPLMAAAAHGQIAVVEFLLQNGADPQLLGKGRESALSLACSKGYTDIVKMLLDCGVDVNEYDWNGGTPLLYAVHGNHVKCVKMLLESGADPTIETDSGYNSMDLAVALGYRSVQQVIESHLLKLLQNIKE", "note": "[W188A]", "effect of a mutation on the interaction": "disrupting interaction strength"},
      {"variant": "MDTSTNLDIGAQLIVEECPSTYSLTGMPDIRIEHPLDPNSEEGSAQGVAMGMKFILPNRFDMNVCSRFVKSLNEEDSKNIQDQVNSDLEVASVLFKAECNIHTSPSPGIQVRHVYTPSTTKHFSPIKQSTTLTNKHRGNEVSTTPLLANSLSVHQLAAQGEMLYLATRIEQENVINHTDEEGFTPLMWAAAHGQIAVVEFLLQNGADPQLLGKGRESALSLACSKGYTDIVKMLLDCGVDVNEYDWNGGTPLLYAVHGNHVKCVKMLLESGADPTIETDSGYNSMDLAVALGYRSVQQVIESHLLKLLQNIKE", "note": "[K31R]", "effect of a mutation on the interaction": "with no effect"}
    ]},
    {"variants_of": "B2", "settings": "with anra2_human ANKRA2, Q9H9E1", "values": [
      {"variant": "MLQIGEDVDYLLIPREVRLAGGVWRVISKPATKEAEFRERLTQFLEEEGRTLEDVARIMEKSTPHPPQPPKKPKEPRVRRRVQQMVTPPPRLVVGTYDSSNASDSEFSDFETSRDKSRQGPRRGKKVRKMPVSYLGSKFLGSDLESEDDEELVEAFLRRQEKQPSAPPARRRVNLPVPMFEDNLGPQLSKADRWREYVSQVSWGKLKRRVKGWAPRAGPGVGEARLASTAVESAGVSSAPEGTSPGDRLGNAGDVCVPQASPRRWRPKINWASFRRRRKEQTAPTGQGADIEADQGGEAADSQREEAIADQREGAAGNQRAGAPADQGAEAADNQREEAADNQRAGAPAEEGAEAADNQREEAADNQRAEAPADQRSQGTDNHREEAADNQRAEAPADQGSEVTDNQREEAVHDQRERAPAVQGADNQRAQARAGQRAEAAHNQRAGAPGIQEAEVSAAQGTTGTAPGARARKQVKTVRFQTPGRFSWFCKRRRAFWHTPRLPALPKRVPRAGEARNLRVLRAEARAEAEQGEQEDQL", "note": "[T504A]", "effect of a mutation on the interaction": "disrupting interaction strength"},
      {"variant": "MLQIGEDVDYLLIPREVRLAGGVWRVISKPATKEAEFRERLTQFLEEEGRTLEDVARIMEKSTPHPPQPPKKPKEPRVRRRVQQMVTPPPRLVVGTYDSSNASDSEFSDFETSRDKSRQGPRRGKKVRKMPVSYLGSKFLGSDLESEDDEELVEAFLRRQEKQPSAPPARRRVNLPVPMFEDNLGPQLSKADRWREYVSQVSWGKLKRRVKGWAPRAGPGVGEARLASTAVESAGVSSAPEGTSPGDRLGNAGDVCVPQASPRRWRPKINWASFRRRRKEQTAPTGQGADIEADQGGEAADSQREEAIADQREGAAGNQRAGAPADQGAEAADNQREEAADNQRAGAPAEEGAEAADNQREEAADNQRAEAPADQRSQGTDNHREEAADNQRAEAPADQGSEVTDNQREEAVHDQRERAPAVQGADNQRAQARAGQRAEAAHNQRAGAPGIQEAEVSAAQGTTGTAPGARARKQVKTVRFQTPGRFSWFCKRRRAFWHTPRLATLPKRVPRAGEARNLRVLRAEARAEAEQGEQEDQL", "note": "[P503A]", "effect of a mutation on the interaction": "disrupting interaction strength"}
    ]}
  ]
}
